Legend:
Abl (H396P) (h) = Abl (H396P) (h) (Homo sapiens, UniProt P00519, H396P); assay: Kinase Profiling Assay; format: biochemical; settings: 100 μM
Procedure, shortened: (§1)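 Kinase inhibition by MK2 inhibitory peptides was profiled radiometrically, with substrate phosphorylation from labeled ATP read by scintillation after capture on a charged filter. Values are relative to 100% activity and measured in duplicate.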

CK1γ2 (h) = biological target: T1, CK1γ2 (h) (Homo sapiens, UniProt P78368); assay: Kinase Profiling Assay; format: biochemical; settings: 100 μM
T1 construct: purchased Millipore
Procedure, shortened: as §1

PAK3 (h) = biological target: T2, PAK3 (h) (Homo sapiens, UniProt O75914); assay: Kinase Profiling Assay; format: biochemical; settings: 100 μM
T2 construct: purchased Millipore
T2 sequence (O75914 whole entry): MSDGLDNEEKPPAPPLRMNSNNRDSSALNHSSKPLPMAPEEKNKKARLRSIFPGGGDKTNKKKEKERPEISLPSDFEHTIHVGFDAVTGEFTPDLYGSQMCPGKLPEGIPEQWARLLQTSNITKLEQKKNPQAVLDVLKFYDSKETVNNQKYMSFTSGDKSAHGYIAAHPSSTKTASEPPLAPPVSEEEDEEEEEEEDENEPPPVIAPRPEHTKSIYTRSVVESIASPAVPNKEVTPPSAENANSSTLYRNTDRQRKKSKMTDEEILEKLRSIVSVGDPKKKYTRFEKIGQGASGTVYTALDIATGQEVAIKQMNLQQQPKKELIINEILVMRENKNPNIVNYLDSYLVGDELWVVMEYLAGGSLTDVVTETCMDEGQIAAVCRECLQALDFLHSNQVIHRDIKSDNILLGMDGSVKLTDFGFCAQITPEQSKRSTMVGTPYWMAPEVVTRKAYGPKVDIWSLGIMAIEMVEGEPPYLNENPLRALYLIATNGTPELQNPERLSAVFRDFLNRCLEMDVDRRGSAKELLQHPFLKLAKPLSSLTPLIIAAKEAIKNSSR
Procedure, shortened: as §1

MRCKα (h) = biological target: T3, MRCKα (h) (Homo sapiens, UniProt Q5VT25); assay: Kinase Profiling Assay; format: biochemical; settings: 100 μM
T3 construct: purchased Millipore
T3 sequence (Q5VT25 whole entry): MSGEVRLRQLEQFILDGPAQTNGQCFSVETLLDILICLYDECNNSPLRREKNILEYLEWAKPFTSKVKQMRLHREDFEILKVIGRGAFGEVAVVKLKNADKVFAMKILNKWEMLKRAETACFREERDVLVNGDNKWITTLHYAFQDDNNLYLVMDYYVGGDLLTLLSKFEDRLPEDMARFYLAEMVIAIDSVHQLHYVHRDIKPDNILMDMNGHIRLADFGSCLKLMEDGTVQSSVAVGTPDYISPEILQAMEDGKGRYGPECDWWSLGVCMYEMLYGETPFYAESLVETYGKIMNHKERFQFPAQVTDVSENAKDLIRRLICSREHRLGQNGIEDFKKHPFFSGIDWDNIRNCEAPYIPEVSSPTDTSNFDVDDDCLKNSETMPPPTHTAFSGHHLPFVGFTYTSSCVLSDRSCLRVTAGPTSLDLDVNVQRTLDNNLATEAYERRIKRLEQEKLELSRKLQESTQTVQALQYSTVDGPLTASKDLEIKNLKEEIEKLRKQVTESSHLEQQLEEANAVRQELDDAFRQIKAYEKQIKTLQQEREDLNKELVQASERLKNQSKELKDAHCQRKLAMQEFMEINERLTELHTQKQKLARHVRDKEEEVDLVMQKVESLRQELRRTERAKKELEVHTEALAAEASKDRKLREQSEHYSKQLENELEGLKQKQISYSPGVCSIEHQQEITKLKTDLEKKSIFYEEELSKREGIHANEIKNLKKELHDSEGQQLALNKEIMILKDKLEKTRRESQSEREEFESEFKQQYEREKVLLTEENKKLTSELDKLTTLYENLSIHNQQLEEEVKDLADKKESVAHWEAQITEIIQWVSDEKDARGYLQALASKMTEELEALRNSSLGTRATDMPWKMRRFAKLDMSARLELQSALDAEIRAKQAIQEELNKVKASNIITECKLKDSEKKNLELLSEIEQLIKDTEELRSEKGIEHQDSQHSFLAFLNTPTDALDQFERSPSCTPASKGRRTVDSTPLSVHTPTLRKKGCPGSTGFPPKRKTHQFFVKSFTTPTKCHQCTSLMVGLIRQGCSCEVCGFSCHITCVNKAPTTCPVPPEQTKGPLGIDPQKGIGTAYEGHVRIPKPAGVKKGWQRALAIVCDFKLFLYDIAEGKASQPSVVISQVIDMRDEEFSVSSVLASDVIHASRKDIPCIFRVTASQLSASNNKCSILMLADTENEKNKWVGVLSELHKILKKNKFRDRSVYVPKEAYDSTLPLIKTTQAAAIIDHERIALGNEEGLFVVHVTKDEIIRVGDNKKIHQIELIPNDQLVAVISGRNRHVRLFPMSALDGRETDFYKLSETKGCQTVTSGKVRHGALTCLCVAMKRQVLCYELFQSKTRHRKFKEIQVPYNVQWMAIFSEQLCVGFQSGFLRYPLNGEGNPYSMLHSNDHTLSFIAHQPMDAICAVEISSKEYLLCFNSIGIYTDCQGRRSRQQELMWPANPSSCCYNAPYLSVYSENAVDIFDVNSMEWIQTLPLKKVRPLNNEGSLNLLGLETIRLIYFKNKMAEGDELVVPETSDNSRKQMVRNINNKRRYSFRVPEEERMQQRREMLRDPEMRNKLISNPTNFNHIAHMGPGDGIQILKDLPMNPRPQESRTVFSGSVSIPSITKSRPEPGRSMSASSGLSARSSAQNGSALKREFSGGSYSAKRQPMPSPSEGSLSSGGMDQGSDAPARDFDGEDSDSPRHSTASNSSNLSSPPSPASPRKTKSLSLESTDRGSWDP
Procedure, shortened: as §1

PAR-1Bα (h) = biological target: T4, PAR-1Bα (h) (Homo sapiens, UniProt Q7KZI7); assay: Kinase Profiling Assay; format: biochemical; settings: 100 μM
T4 construct: purchased Millipore
T4 sequence (Q7KZI7 1-725 isoform Q7KZI7-4): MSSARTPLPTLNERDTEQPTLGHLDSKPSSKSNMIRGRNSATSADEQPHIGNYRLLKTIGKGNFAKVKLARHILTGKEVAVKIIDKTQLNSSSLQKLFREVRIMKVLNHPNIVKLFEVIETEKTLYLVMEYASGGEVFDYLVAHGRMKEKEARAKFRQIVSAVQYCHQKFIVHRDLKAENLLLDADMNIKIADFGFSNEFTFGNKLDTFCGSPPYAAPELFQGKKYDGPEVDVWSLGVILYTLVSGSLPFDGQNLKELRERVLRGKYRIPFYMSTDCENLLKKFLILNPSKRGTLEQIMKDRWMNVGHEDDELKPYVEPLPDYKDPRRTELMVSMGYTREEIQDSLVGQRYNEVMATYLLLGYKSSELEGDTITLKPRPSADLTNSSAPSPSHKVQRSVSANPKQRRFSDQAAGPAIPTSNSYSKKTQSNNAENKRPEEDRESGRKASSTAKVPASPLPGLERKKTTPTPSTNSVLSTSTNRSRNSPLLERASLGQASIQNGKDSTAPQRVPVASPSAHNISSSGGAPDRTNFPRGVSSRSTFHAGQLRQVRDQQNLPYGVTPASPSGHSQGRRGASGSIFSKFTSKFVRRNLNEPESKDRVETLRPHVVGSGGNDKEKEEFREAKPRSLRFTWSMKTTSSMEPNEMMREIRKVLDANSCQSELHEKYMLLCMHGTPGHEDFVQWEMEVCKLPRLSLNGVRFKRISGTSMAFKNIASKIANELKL
Procedure, shortened: as §1

c-RAF (h) = biological target: T5, c-RAF (h) (Homo sapiens, UniProt P04049); assay: Kinase Profiling Assay; format: biochemical; settings: 100 μM
T5 construct: purchased Millipore
Procedure, shortened: as §1

JAK3 (h) = biological target: T6, JAK3 (h) (Homo sapiens, UniProt P52333); assay: Kinase Profiling Assay; format: biochemical; settings: 100 μM
T6 construct: purchased Millipore
T6 sequence (P52333 1-1124): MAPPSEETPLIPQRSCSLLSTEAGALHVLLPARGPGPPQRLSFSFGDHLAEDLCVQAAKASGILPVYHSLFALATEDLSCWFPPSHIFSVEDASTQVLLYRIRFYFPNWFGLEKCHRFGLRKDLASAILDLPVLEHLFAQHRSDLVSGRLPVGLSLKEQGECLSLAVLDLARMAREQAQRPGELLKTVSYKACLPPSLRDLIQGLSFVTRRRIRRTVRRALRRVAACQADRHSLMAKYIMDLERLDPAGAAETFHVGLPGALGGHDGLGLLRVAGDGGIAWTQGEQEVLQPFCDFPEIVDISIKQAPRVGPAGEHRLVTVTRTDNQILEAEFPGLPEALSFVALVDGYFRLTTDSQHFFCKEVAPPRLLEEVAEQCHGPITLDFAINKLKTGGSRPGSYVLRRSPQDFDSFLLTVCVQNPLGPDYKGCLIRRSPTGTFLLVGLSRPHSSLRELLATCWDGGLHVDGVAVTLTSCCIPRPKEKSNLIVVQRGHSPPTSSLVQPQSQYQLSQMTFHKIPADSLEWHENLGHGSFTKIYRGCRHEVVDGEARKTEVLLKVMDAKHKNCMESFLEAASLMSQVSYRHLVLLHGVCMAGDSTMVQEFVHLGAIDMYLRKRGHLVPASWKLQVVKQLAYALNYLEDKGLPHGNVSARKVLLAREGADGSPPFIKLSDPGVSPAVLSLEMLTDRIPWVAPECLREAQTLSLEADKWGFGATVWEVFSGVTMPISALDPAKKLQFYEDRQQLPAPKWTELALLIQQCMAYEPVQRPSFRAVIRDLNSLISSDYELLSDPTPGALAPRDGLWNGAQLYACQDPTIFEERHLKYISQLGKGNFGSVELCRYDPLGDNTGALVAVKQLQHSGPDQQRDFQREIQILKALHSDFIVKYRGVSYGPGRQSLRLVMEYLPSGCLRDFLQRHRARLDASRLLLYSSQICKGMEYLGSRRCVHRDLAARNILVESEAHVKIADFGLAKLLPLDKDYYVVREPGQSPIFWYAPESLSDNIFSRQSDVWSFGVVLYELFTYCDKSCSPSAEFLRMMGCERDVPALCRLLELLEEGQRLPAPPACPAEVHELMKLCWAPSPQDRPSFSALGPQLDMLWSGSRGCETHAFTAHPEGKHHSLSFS
Procedure, shortened: as §1

PAK6 (h) = biological target: T7, PAK6 (h) (Homo sapiens, UniProt Q9NQU5); assay: Kinase Profiling Assay; format: biochemical; settings: 100 μM
T7 construct: purchased Millipore
T7 sequence (Q9NQU5 whole entry): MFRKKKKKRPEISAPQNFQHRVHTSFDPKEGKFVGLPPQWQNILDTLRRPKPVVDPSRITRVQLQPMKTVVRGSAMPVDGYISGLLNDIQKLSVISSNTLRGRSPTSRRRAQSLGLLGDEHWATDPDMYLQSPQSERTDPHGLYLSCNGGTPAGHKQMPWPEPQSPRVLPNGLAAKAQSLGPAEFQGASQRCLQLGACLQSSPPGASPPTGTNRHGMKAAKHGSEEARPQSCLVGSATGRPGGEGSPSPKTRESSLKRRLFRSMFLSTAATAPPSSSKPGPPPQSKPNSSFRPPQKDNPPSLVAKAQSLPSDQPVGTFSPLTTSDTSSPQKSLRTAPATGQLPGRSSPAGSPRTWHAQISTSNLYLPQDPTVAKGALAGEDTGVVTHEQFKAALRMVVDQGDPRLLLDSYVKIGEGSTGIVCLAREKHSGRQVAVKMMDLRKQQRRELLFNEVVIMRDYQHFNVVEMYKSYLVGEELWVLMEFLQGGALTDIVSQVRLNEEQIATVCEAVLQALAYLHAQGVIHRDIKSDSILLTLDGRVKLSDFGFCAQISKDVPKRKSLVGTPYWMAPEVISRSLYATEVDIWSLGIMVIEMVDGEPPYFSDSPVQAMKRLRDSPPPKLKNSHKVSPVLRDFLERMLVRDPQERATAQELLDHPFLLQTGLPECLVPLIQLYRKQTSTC
Procedure, shortened: as §1

[1] = system: bleomycin-induced lung fibrosis; assay: Bleomycin mouse model of pulmonary fibrosis (prevention model); format: in vivo, C57BL/6 mice; settings: 25, 50 or 75 μg/kg daily IP, day 7 through day 21
Protocol: A mouse model of pulmonary fibrosis was generated by administering 0.025 U of bleomycin/PBS intratracheally to C57BL/6 mice. […] At 21 day post bleomycin delivery (for prevention model) or 28 post bleomycin delivery (for treatment model), groups of mice were sacrificed with a sodium pentobarbital injection (120 mg/kg) and the chest cavity was opened. The right mainstem bronchus was ligated and the right lung was removed. The trachea was cannulated and the left lung was perfused with 4% formaldehyde at 21 cm H2O pressure. The tissue blocks then were embedded in paraffin, and […] sections were prepared for staining. Sections from each animal were stained with hematoxylin and eosin (H&E) to visualize cells or with Masson's Trichrome staining to highlight collagen deposition. […] Stained sections were mounted onto a labeled glass slide with organic mounting medium.
Briefly, fibrotic loci in the lungs of the mice were induced by delivering intratracheally about 0.025 U of bleomycin (dissolved in PBS) to C57BL/6 mice. […] Briefly, mice were sacrificed with a sodium pentobarbital injection (120 mg/kg) and the chest cavity was opened. The right mainstem bronchus was ligated and the right lung was removed. The trachea was cannulated and the left lung was perfused with 4% formaldehyde at 21 cm H2O pressure. The tissue blocks then were embedded in paraffin, and […] sections were prepared, and stained with hematoxylin and eosin (H&E; for pathological examination) or Masson's Trichrome (for collagen staining)
Next, total collagen levels in the lungs of the bleomycin-injured mice (FIG. 12) were analyzed quantitatively by computing a constant conversion factor (7.5) for collagen from hydroxyproline concentrations (Neuman R. and Logan M, J Biol Chem., 186(2):549-56, 1950, incorporated by reference).
Next, the effect of increasing doses of MK2 peptide inhibitors on collagen deposition was examined in vivo using the bleomycin mouse model of idiopathic pulmonary fibrosis (prevention model). Briefly, C57-BL/6 mice were subjected to bleomycin injury at day 0.

CLK2 (h) = biological target: T8, CLK2 (h) (Homo sapiens, UniProt P49760); assay: Kinase Profiling Assay; format: biochemical; settings: 100 μM
T8 construct: purchased Millipore
T8 sequence (P49760 whole entry): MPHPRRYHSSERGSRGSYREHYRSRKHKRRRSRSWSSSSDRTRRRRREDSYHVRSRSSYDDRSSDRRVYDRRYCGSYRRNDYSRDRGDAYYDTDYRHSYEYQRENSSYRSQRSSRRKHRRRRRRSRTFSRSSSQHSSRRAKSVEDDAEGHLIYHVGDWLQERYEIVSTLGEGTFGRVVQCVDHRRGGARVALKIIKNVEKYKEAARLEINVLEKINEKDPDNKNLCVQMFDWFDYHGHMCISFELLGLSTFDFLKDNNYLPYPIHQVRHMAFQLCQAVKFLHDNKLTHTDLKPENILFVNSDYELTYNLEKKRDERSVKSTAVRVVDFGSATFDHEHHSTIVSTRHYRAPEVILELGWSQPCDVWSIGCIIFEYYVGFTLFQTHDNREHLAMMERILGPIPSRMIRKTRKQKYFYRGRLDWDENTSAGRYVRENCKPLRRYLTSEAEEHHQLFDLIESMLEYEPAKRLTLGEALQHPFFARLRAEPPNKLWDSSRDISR
Procedure, shortened: as §1

Plk1 (h) = Plk1 (h) (Homo sapiens, UniProt P53350); assay: Kinase Profiling Assay; format: biochemical; settings: 100 μM
Sequence of Plk1 (h) (P53350 whole entry): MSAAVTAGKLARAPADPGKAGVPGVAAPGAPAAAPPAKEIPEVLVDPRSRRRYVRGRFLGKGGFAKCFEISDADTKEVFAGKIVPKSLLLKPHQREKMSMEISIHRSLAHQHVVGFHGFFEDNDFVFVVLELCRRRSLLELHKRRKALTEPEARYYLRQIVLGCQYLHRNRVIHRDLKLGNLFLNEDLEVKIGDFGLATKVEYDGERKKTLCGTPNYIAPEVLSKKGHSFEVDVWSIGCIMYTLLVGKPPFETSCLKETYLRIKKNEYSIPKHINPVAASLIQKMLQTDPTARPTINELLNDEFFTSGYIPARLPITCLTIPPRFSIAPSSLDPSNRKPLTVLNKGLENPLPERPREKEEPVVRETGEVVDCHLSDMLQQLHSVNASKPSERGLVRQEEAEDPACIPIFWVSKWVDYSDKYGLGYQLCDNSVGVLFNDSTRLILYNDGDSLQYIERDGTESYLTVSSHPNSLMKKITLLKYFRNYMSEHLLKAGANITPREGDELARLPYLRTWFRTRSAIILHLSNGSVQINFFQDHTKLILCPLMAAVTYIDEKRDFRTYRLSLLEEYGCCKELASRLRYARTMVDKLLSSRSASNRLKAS
Procedure, shortened: as §1

CK1γ1 (h) = biological target: T9, CK1γ1 (h) (Homo sapiens, UniProt Q9HCP0); assay: Kinase Profiling Assay; format: biochemical; settings: 100 μM
T9 construct: purchased Millipore
Procedure, shortened: as §1

[2] = system: human fetal lung fibroblasts (IMR-90), α-SMA; assay: TGF-β-induced myofibroblast activation, α-SMA immunoblot; format: cell-based; settings: 1 h pre-treatment, then TGF-β1 (2 ng/ml) 48 h
From the text: Cell lysates were immunoblotted against antibodies for α-SMA (a marker for myofibroblast activation) and GAPDH (loading control).

Sequence	% activity (Abl (H396P) (h)) [%]	% activity (PAK3 (h)) [%]	% activity (MRCKα (h)) [%]	% activity (PAR-1Bα (h)) [%]	% activity (JAK3 (h)) [%]	also measured
FAKLAARLYRKALARQLGVAA [MMI-0300]	101	140				% activity (CK1γ2 (h)): 123%
HRRIKAWLKKIKALARQLGVAA (Mammalian) [MMI-0500]	51		5	97	95	% activity (c-RAF (h)): 19%
KAFAKLAARLYRKALARQLGVAA [MMI-0400]			97		122	% activity (PAK6 (h)): 100%
YARAAARQARAKALNRQLGVA (Mammalian) [MMI-0200]		50		110		collagen levels in the lung (Masson's blue trichrome staining), dose response [1]: did not reduce, but rather increased the collagen deposition; % activity (CLK2 (h)): 97%; % activity (Plk1 (h)): 128%; % activity (CK1γ1 (h)): 98%; protein level of α-smooth muscle actin (α-SMA) [2]: no changes in the protein level
